The values below come from patent publication US20070244297A1.

Read-outs that look alike come from different tables or passages of the source.

Assay [1] has as its target T1, recombinant human neuronal calcium channel α1B-1α2bβ1-2 (human), Q00975.
For assay [2], the target named is human neuronal calcium channel α1B-1 subunit (expressed alone) (human), Q00975.
Assay [3] concerns the target T2, recombinant human neuronal calcium channel α1B-1α2b (human).
In assay [4] the target is T2, recombinant human neuronal calcium …. Kind of assay: 125I-ω-CgTx GVIA saturation binding to transiently transfected HEK293 cells.
In assay [5] the target is T1, recombinant human neuronal calcium …. Described as above.
The target of assay [6] is recombinant human neuronal calcium channel α1B-1α2bβ1-3 (human). Described as above.
Assay [7] concerns the target recombinant human neuronal calcium channel α1B-1β1-2 (human), Q00975. The assay is described as above.
Assay [8] has as its target recombinant human neuronal calcium channel α1B-1β1-3 (human), Q00975. Described as above.
The target of assay [9] is recombinant human neuronal calcium channel α1B-2α2bβ1-2 (human). The assay is described as above.
In assay [10] the target is recombinant human neuronal calcium channel α1B-2α2bβ1-3 (human), Q00975. The assay is described as above.
Assay [11] deals with recombinant human neuronal calcium channel α1B-2β1-2 (human), Q00975. Described as above.
Assay [12] concerns the target recombinant human neuronal calcium channel α1B-2β1-3 (human), Q00975. The description is as above.

B1: ω-CgTx, P01522 46-73 (peptide)
peptide: CKSPGSSCSPTSYNCCRSCNPYTKRCYG
modifications: not checked
With B1, in assay [1], the Kd (commonly the free concentration of one partner at which half of the binding sites on the other are occupied at equilibrium, for simple one-to-one binding) stood at 0.0546 nM and the binding capacity (Bmax) (sites per cell) turned out to be 28700.

B2: 125I-ω-CgTx GVIA, P01522 46-73 (peptide)
peptide: CKSPGSSCSPTSYNCCRSCNPYTKRCYG
modifications: not checked
Take B2: in assay [2], the Bmax was determined as 757 sites/cell and the Kd is 0.0317 nM. In addition, in assay [3], the Bmax came out at 2260 sites/cell and the Kd was 0.0846 nM. For the same molecule, the fold change of binding capacity against α1B-1 alone in [4] was determined as 3 fold. In addition, in [5], the Bmax is 45300 sites/cell, the dissociation constant Kd came to 0.0549 nM, the fold change of binding sites per cell against α1B-2α2bβ1-2 was determined as 2.5 fold and the fold change of surface receptor density against α1B-1β1-2 is 8 fold. Moreover, in assay [6], the Bmax worked out at 91000 sites/cell, the equilibrium dissociation constant (Kd) amounted to 0.0532 nM, the fold change of binding capacity against α1B-1α2bβ1-2 amounted to 2 fold and the fold change of binding sites per cell against α1B-2α2bβ1-3 worked out at 2.5 fold. The fold change of surface receptor density against α1B-1β1-3 in assay [6] was found to be 10 fold. In [7], the Bmax was 5760 sites/cell, the dissociation constant Kd was found to be 0.0179 nM and the fold change of surface binding against α1B-1 alone amounted to 8 fold. Further, in assay [8], the Bmax turned out to be 8730 sites/cell, the Kd turned out to be 0.0179 nM and the fold change of surface binding against α1B-1 alone amounted to 10 fold. Further, in assay [9], the Bmax was found to be 19400 sites/cell, the equilibrium dissociation constant (Kd) came to 0.053 nM and the fold change of surface receptor density against α1B-2β1-2 was determined as 9 fold. In addition, in assay [10], the Bmax amounted to 37700 sites/cell, the equilibrium dissociation constant (Kd) was 0.0443 nM, the fold change of binding capacity against α1B-2α2bβ1-2 came out at 2 fold and the fold change of surface receptor density against α1B-2β1-3 came out at 13 fold. In assay [11], the Bmax amounted to 2130 sites/cell and the dissociation constant Kd came to 0.0164 nM. For the same molecule, in assay [12], the Bmax was found to be 2940 sites/cell and the Kd amounted to 0.0222 nM.
